This series concerns the molecule itself. Nature of the series: cryo-EM structure; single-particle cryo-EM of purified YnaI in amphipols; 20 mmol/L Mes pH 6.5, 200 mmol/L NaCl, 5 mmol/L DTT; 0.1 mg/mL on grids; homoheptamer.

1 protein from article PMC6019658 (Protein & Cell, 2017) can be followed below.

B1: YnaI channel (MscS-like mechanosensitive channel of E. coli) (natural protein, UniProt P0AEB5 1-343, looked up)
chain: MIAELFTNNALNLVIIFGSCAALILMSFWFRRGNRKRKGFLFHAVQFLIYTIIISAVGSIINYVIENYKLKFITPGVIDFICTSLIAVILTIKLFLLINQFEKQQIKKGRDITSARIMSRIIKITIIVVLVLLYGEHFGMSLSGLLTFGGIGGLAVGMAGKDILSNFFSGIMLYFDRPFSIGDWIRSPDRNIEGTVAEIGWRITKITTFDNRPLYVPNSLFSSISVENPGRMTNRRITTTIGLRYEDAAKVGVIVEAVREMLKNHPAIDQRQTLLVYFNQFADSSLNIMVYCFTKTTVWAEWLAAQQDVYLKIIDIVQSHGADFAFPSQTLYMDNITPPEQGR
Consider B1, for which the “stoichiometry N” value is 7.

As a reminder, the stoichiometry N is the number of molecules, sites or subunits per partner or assembly.
